Laboratory results published in publication doi:10.1101/2024.07.25.605195 (bioRxiv, 2024).
Where “and” joins values, the source holds several entries; their conditions need not be identical. Equal values may be shown once.

Target: the molecule itself
Experiment: cryo-EM structure

B1: mouse seipin, recombinant, purified from Expi293 cells co-expressing Adig (natural protein, UniProt Q9Z2E9 1-383, looked up)
chain: MVNDPPVPALLWAQEVGHVLAGRARRLMLQFGVLFCTILLLLWVSVFLYGSFYYSYMPTVSHLSPVHFHYRTDCDSSTASLCSFPVANVSLAKSGRDRVLMYGQPYRVTLELELPESPVNQDLGMFLVTVSCYTRGGRIISTSSRSVMLHYRSQLLQVLDTLLFSSLLLFGFAEQKQLLEVELYSDYRENSYVPTTGAIIEIHSKRIQMYGAYLRIHAHFTGLRYLLYNFPMTCAFVGVASNFTFLSVIVLFSYMQWVWGAVWPRHRFSLQVNIRQRDNSHHGAPRRISRHQPGQESTQQSDVTEDGESPEDPSGTEGQLSEEEKPEKRPLNGEEEQEPEASDGSWEDAALLTEANPPTSASASALAPETLGSLRQRPTCSSS
How did the “stoichiometry N” value turn out when B1 was run?
The value was 11 and 12.
